doi:10.1101/2021.07.14.452313

Target: biotinylated hACE2-fc (residues 18-740) (human) (UniProt Q9BYF1)
Test: SPR

Sequence of UniProt Q9BYF1 (Q9BYF1 18-740): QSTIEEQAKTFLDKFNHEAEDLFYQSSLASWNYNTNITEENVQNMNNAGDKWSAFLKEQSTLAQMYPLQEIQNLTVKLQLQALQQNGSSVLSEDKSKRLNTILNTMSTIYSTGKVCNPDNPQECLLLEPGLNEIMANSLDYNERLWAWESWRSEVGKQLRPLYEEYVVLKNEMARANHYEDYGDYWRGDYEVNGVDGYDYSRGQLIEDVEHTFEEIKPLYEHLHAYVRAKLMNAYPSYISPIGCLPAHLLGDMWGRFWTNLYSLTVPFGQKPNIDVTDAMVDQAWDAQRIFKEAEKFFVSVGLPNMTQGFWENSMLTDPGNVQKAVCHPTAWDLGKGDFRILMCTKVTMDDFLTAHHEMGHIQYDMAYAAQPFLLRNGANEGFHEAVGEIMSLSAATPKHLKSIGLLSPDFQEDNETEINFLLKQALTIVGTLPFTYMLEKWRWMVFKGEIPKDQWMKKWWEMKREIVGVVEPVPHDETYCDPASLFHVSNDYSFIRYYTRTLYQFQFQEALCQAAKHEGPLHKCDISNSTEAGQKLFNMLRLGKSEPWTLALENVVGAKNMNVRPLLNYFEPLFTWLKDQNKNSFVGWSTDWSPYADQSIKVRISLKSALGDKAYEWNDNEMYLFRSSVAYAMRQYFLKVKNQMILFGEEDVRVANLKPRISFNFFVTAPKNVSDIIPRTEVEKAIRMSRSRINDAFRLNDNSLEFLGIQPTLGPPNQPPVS

Substance	KD1 (first step, two state fit) [nM]	Kd [nM]	ka1 (first step, two state fit) [M⁻¹ s⁻¹]	ka2 (second step, two state fit) [M⁻¹ s⁻¹]	kd1 (first step, two state fit) [s⁻¹]	kd2 (second step, two state fit) [s⁻¹]
SARS-CoV-2 B.1.1.7 trimeric spike protein (domain or fragment)	193	0.04	1.31e+06	0.053	0.025	0.00011
SARS-CoV-2 wt trimeric spike protein (domain or fragment)	1.8	0.041	782000	0.0105	0.00141	0.000244
